Positions count from the first letter of the chain named. Names may count otherwise.
T1: biotin-MBP-NLRP1 M1184V (Avi-MBP-tev-NLRP1 M1184V) (human, UniProt Q9C000 1-1473, M1184V, biotin (on the Avi tag, BirA co-expressed))
T1 construct: NLRP1, human, isoform 1, residues 1-1473, natural variant M1184V; also called M1184VSf9; source: Sf9 insect cells, co-expressed with BirA, purified (multimer or void SEC fraction); not shown: Avi, N-terminal, kept; MBP, N-terminal, kept
T1 sequence (looked up): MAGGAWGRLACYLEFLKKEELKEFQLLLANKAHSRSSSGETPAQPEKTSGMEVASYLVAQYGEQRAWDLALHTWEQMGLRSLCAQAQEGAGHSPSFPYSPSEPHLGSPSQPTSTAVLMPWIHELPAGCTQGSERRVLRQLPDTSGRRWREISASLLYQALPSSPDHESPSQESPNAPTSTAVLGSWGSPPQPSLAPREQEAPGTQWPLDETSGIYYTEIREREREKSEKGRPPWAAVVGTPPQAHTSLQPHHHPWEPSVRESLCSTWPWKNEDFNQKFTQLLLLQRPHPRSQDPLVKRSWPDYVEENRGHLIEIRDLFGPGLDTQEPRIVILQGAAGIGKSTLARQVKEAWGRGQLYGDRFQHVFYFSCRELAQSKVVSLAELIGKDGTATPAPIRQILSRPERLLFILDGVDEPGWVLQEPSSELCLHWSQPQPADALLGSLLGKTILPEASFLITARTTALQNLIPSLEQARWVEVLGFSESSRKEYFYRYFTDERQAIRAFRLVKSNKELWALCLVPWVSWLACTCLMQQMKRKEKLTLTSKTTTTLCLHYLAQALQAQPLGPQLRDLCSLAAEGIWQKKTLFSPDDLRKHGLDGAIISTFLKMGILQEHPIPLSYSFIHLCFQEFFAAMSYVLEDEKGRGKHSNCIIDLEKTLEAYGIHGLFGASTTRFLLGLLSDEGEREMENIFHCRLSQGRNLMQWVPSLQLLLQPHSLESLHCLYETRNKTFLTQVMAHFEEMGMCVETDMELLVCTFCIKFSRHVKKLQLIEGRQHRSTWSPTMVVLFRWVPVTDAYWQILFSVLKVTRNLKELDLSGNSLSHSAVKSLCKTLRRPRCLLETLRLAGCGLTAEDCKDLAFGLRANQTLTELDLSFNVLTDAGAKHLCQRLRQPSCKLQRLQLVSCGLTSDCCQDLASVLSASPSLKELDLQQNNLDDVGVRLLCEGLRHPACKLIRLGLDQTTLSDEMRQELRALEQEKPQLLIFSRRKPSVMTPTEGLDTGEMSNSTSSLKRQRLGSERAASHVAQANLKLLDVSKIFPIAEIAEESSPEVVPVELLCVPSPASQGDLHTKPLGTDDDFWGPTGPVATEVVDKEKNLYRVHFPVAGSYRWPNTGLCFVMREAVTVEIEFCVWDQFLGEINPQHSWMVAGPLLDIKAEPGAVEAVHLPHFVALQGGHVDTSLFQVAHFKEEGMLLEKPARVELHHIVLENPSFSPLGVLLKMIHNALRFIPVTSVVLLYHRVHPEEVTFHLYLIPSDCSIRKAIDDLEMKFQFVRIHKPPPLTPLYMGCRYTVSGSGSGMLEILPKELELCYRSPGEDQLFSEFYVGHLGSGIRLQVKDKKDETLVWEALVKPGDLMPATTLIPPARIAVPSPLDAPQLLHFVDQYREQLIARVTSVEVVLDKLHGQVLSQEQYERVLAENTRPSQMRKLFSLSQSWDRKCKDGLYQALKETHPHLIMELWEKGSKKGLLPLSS

T2: Biotin-FLAG-NLRP1 M1184V (human, UniProt Q9C000 1-1473, M1184V, biotin)
T2 construct: NLRP1 full length, natural variant M1184V; the construct for purification from HEK293T and its biotinylation are not described in the methods; also called M1184VHEK; source: HEK293T cells, purified
T2 sequence (looked up): T1 sequence (looked up)

T3: C-terminal cleavage fragment (UPA) of NLRP1-FIIND (human, UniProt Q9C000 1213-1376)
T3 construct: NLRP1, human, isoform 1; from the autolytic cleavage site (S1213) to the end of the FIIND construct (1376); source: Sf9 insect cells, purified; arises by autoproteolysis of the FIIND construct
T3 sequence (looked up): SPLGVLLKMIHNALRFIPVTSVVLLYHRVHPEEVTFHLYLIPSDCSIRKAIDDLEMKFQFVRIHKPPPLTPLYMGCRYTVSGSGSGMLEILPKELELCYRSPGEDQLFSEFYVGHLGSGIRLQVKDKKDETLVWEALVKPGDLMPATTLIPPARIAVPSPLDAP

B1: NLRP1-FIIND (wt) (domain or fragment, human, UniProt Q9C000 1064-1376, looked up)
chain: SQGDLHTKPLGTDDDFWGPTGPVATEVVDKEKNLYRVHFPVAGSYRWPNTGLCFVMREAVTVEIEFCVWDQFLGEINPQHSWMVAGPLLDIKAEPGAVEAVHLPHFVALQGGHVDTSLFQMAHFKEEGMLLEKPARVELHHIVLENPSFSPLGVLLKMIHNALRFIPVTSVVLLYHRVHPEEVTFHLYLIPSDCSIRKAIDDLEMKFQFVRIHKPPPLTPLYMGCRYTVSGSGSGMLEILPKELELCYRSPGEDQLFSEFYVGHLGSGIRLQVKDKKDETLVWEALVKPGDLMPATTLIPPARIAVPSPLDAP
notes: NLRP1 FIIND domain (ZU5-UPA), human, residues 1064-1376 of isoform 1; GST is still on the protein during the GST pull-down of the co-expression experiments and is cut off by TEV before SEC, SEC-MALS and SPR; also called wt FIIND protein; NLRP1 FIIND domain; source: also co-expressed with His6-DPP9 and SUMO-UPA in Sf9; not shown: GST, N-terminal, cleaved
B2: NLRP1-FIIND (P1214R) (domain or fragment, human, UniProt Q9C000 1064-1376, looked up)
chain: B1 chain with P151R
notes: NLRP1 FIIND domain, human, residues 1064-1376 of isoform 1, patient mutation P1214R; not shown: GST, N-terminal, cleaved
B3: NLRP1-FIIND (M1184V–P1214R) (domain or fragment, human, UniProt Q9C000 1064-1376, looked up)
chain: B1 chain with M121V, P151R
notes: NLRP1 FIIND domain, human, residues 1064-1376 of isoform 1, M1184V and P1214R; they were combined here by mutagenesis; also called M1184V–P1214R double mutation; not shown: GST, N-terminal, cleaved
B4: NLRP1-FIIND (S1213A) (domain or fragment, human, UniProt Q9C000 1064-1376, looked up)
chain: B1 chain with S150A
notes: NLRP1 FIIND domain, human, residues 1064-1376 of isoform 1, S1213A (no autoproteolysis); Uncleaved single chain; also called autoproteolysis-deficient NLRP1-FIIND; not shown: GST, N-terminal, cleaved
B5: NLRP1-FIIND (M1184V) (domain or fragment, human, UniProt Q9C000 1064-1376, looked up)
chain: B1 chain with M121V
notes: NLRP1 FIIND domain (ZU5-UPA), human, residues 1064-1376 of isoform 1, natural variant M1184V; Mostly autocleaved between F1212 and S1213, the fragments stay together; GST is still on the protein during the GST pull-down of the co-expression experiments and is cut off by TEV before SEC, SEC-MALS and SPR; also called M1184V variant FIIND; source: also co-expressed with His6-DPP9 with or without …
B6: NLRP1-FIIND (M1184V S1213A) (domain or fragment, human, UniProt Q9C000 1064-1376, looked up)
chain: B1 chain with M121V, S150A
notes: NLRP1 FIIND domain, human, residues 1064-1376 of isoform 1, M1184V and S1213A; Uncleaved single chain; GST kept during the GST pull-down of the co-expression, cut off by TEV afterwards; also called cleavage-deficient FIIND mutant (M1184V–S1213A); source: also co-expressed with His6-DPP9 in Sf9; not shown: GST, N-terminal, cleaved
B7: His6-tev-DPP9 (enzyme, UniProt Q86TI2 1-863, looked up)
chain: MATTGTPTADRGDAAATDDPAARFQVQKHSWDGLRSIIHGSRKYSGLIVNKAPHDFQFVQKTDESGPHSHRLYYLGMPYGSRENSLLYSEIPKKVRKEALLLLSWKQMLDHFQATPHHGVYSREEELLRERKRLGVFGITSYDFHSESGLFLFQASNSLFHCRDGGKNGFMVSPMKPLEIKTQCSGPRMDPKICPADPAFFSFINNSDLWVANIETGEERRLTFCHQGLSNVLDDPKSAGVATFVIQEEFDRFTGYWWCPTASWEGSEGLKTLRILYEEVDESEVEVIHVPSPALEERKTDSYRYPRTGSKNPKIALKLAEFQTDSQGKIVSTQEKELVQPFSSLFPKVEYIARAGWTRDGKYAWAMFLDRPQQWLQLVLLPPALFIPSTENEEQRLASARAVPRNVQPYVVYEEVTNVWINVHDIFYPFPQSEGEDELCFLRANECKTGFCHLYKVTAVLKSQGYDWSEPFSPGEDEFKCPIKEEIALTSGEWEVLARHGSKIWVNEETKLVYFQGTKDTPLEHHLYVVSYEAAGEIVRLTTPGFSHSCSMSQNFDMFVSHYSSVSTPPCVHVYKLSGPDDDPLHKQPRFWASMMEAASCPPDYVPPEIFHFHTRSDVRLYGMIYKPHALQPGKKHPTVLFVYGGPQVQLVNNSFKGIKYLRLNTLASLGYAVVVIDGRGSCQRGLRFEGALKNQMGQVEIEDQVEGLQFVAEKYGFIDLSRVAIHGWSYGGFLSLMGLIHKPQVFKVAIAGAPVTVWMAYDTGYTERYMDVPENNQHGYEAGSVALHVEKLPNEPNRLLILHGFLDENVHFFHTNFLVSQLIRAGKPYQLQIYPNERHSIRCPESGEHYEVTLLHFLQEYL
notes: dipeptidyl peptidase 9 (DPP9); Dimer by SEC-MALS (192 kDa); also called His6-DPP9; source: Sf9 insect cells, purified; also co-expressed with GST-tev-FIIND constructs in Sf9 and co-purified
B8: N-terminal cleavage fragment (ZU5) of NLRP1-FIIND wt (domain or fragment, human, UniProt Q9C000 1064-1212, looked up)
chain: SQGDLHTKPLGTDDDFWGPTGPVATEVVDKEKNLYRVHFPVAGSYRWPNTGLCFVMREAVTVEIEFCVWDQFLGEINPQHSWMVAGPLLDIKAEPGAVEAVHLPHFVALQGGHVDTSLFQMAHFKEEGMLLEKPARVELHHIVLENPSF
notes: NLRP1, human, isoform 1; from the start of the FIIND construct (1064) to the autolytic cleavage site (peptide bond F1212-S1213); source: Sf9 insect cells, purified; arises by autoproteolysis of the FIIND construct; not shown: GST, N-terminal, cleaved
B9: N-terminal cleavage fragment (ZU5) of NLRP1-FIIND M1184V (domain or fragment, human, UniProt Q9C000 1064-1212, looked up)
chain: B8 chain with M121V
notes: NLRP1, human, isoform 1, natural variant M1184V; from the start of the FIIND construct (1064) to the autolytic cleavage site (peptide bond F1212-S1213); source: Sf9 insect cells, purified; arises by autoproteolysis of the FIIND construct; not shown: GST, N-terminal, cleaved

Assays:
[1] = target: the molecule itself; assay: SEC; purified FIIND proteins after removal of GST by TEV, Superose 6 increase (10/300) GL, 0.5 ml/min; fractions checked by SDS-PAGE
[2] = target: T4, Intracellularly biotinylated Avi-His6-tev-DPP9 (UniProt Q86TI2 1-863, biotin (on the Avi tag)); assay: SPR; biotinylated Avi-His6-tev-DPP9 immobilised on a Series S SA chip (Biacore 8K); monomeric fraction of FIIND proteins (or GST) injected, single-cycle kinetics, 78.125-5000 nM (S1213A from 39.06 nM), 10 mM Hepes pH 7.5, 150 mM NaCl, 0.5 mM TCEP, 0.05% Tween-20; conditions: both partners purified
T4 construct: dipeptidyl peptidase 9 (DPP9); also called biotin-DPP9; immobilized DPP9; source: Sf9 insect cells, intracellularly biotinylated, purified; not shown: Avi, N-terminal, kept; His6, N-terminal, kept

[3] = target: T4, Intracellularly biotinylated …; assay: SPR; as a3, with 100 μM Val-boroPro (VbP) present in all dilutions of the FIIND domain; conditions: both partners purified
[4] = target: B5; assay: SEC-MALS; co-eluting SEC fractions of FIIND, DPP9 and free UPA co-expressed in Sf9 and co-purified; 0.5-1.0 mg/ml, Superose 6 increase (10/300) GL, buffer A without glycerol; conditions: partners not purified
[5] = target: T1, biotin-MBP-NLRP1 M1184V …; assay: SPR; Biotin-FLAG-NLRP1 (from HEK293T) or biotin-MBP-NLRP1 (from Sf9, multimer fraction) or biotin-MBP immobilised on a streptavidin chip; DPP9 injected at 78-2500 nM, single-cycle kinetics, 10 mM Hepes pH 7.5, 150 mM NaCl, 0.5 mM TCEP, 0.05% Tween-20; conditions: both partners purified
[6] = target: T2, Biotin-FLAG-NLRP1 M1184V; assay: as above; conditions: both partners purified
[7] = target: T3, C-terminal cleavage fragment (UPA) of …; assay: SEC; purified FIIND proteins after removal of GST by TEV, Superose 6 increase (10/300) GL, 0.5 ml/min; fractions checked by SDS-PAGE; conditions: both partners purified

B1
binding result [1]: binds | Kd [2]: 1900 nM

B2
Kd [2]: 3430 nM

B3
Kd [2]: 4500 nM

B4
binding result [1]: binds | Kd [2]: 1550 nM

B5
Kd [3]: 3650 nM | Kd [2]: 3500 nM

B6
Kd [2]: 2900 nM

B7
stoichiometry N [4]: 2 DPP9 chains per FIIND | Kd [5]: 149 nM | Kd [6]: 144 nM

B8
binding result [7]: binds

B9
binding result [7]: binds
